# Test results from US20240270821A1, “GIP/GLP1/GCG TRI-RECEPTOR AGONISTS AND USES THEREOF” (priority 2023, published 2024).
# Positions count from the first letter of the chain named.
# T1: human GIP receptor (human) (UniProt P48546)
# T1 sequence (looked up): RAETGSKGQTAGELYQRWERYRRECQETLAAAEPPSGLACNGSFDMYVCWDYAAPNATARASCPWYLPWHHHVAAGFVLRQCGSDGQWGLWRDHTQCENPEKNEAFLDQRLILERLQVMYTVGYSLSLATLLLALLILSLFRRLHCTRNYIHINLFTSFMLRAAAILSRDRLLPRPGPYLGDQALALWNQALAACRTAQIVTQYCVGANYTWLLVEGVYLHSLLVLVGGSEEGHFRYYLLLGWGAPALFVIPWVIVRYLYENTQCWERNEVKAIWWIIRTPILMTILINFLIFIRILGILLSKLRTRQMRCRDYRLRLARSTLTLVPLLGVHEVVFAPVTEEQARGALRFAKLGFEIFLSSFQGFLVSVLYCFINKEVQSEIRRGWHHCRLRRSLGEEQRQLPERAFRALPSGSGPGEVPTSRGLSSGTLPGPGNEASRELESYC
# B1: Example 922 (peptide)
# chain: YXQGTFTSDXSQXLDKKAQXAFIEYLIEXGPSSGAPPPSGS
# modifications: Lys acylated γGlu-C18 diacid; non-natural residues; C-amide; synthetic construct; SITE 2: note = 2-Aminoisobutyric Acid; SITE 10: note = 3-(4-Pyridyl)-L-alanine; SITE 13: note = alpha-methyl-leucine; SITE 17: note = Lysine is chemically modified through conjugation of the epsilon-amino group of the Lysine side chain with (gamma-Glu)-(D-Glutamic acid)2-CO-(CH2)
# B2: Example 923 (peptide)
# chain: B1 chain
# modifications: non-natural residues; C18 diacid-e-γGlu-e on Lys; C-terminal amide; synthetic construct; SITE 2: note = 2-Aminoisobutyric Acid; SITE 10: note = 3-(4-Pyridyl)-L-alanine; SITE 13: note = alpha-methyl-leucine; SITE 17: note = Lysine is chemically modified through conjugation of the epsilon-amino group of the Lysine side chain with D-Glutamic acid-(gamma-Glu)-D-Glutamic
# B3: Example 920 (peptide)
# chain: B1 chain
# modifications: non-natural residues; C18 diacid-γGlu-e on Lys; C-terminal amide; synthetic construct; SITE 2: note = 2-Aminoisobutyric Acid; SITE 10: note = 3-(4-Pyridyl)-L-alanine; SITE 13: note = alpha-methyl-leucine; SITE 17: note = Lysine is chemically modified through conjugation of the epsilon-amino group of the Lysine side chain with D-Glutamic acid-(gamma-Glu)-CO-(CH2)16
# B4: Example 950 (peptide)
# chain: B1 chain with Q12R, Y25X, X29G
# modifications: non-natural residues, AEEA-γGlu-C18 diacid lysine acylation, C-terminal amide; synthetic construct; SITE 2: note = 2-Aminoisobutyric Acid; SITE 10: note = 3-(4-Pyridyl)-L-alanine; SITE 13: note = alpha-methyl-leucine; SITE 17: note = Lysine is chemically modified through conjugation of the epsilon-amino group of the Lysine side chain with (2-[2-(2-Amino-ethoxy)-ethoxy]-acetyl)
# B5: Example 951 (peptide)
# chain: B1 chain with Y25X, X29G
# modifications: Aib, 4Pal, Me4Pal, αMeL; lipidated Lys; C-terminal amide; synthetic construct; SITE 2: note = 2-Aminoisobutyric Acid; SITE 10: note = 3-(4-Pyridyl)-L-alanine; SITE 13: note = alpha-methyl-leucine; SITE 17: note = Lysine is chemically modified through conjugation of the epsilon-amino group of the Lysine side chain with (gamma-Glu)2-CO-(CH2)16-CO2H; SITE 20:
# B6: Example 934 (peptide)
# chain: B1 chain with A21Q, Y25X, X29G
# modifications: non-natural residues, acylated Lys ((γGlu)2-C18 diacid), C-terminal amide; synthetic construct; SITE 2: note = 2-Aminoisobutyric Acid; SITE 10: note = 3-(4-Pyridyl)-L-alanine; SITE 13: note = alpha-methyl-leucine; SITE 17: note = Lysine is chemically modified through conjugation of the epsilon-amino group of the Lysine side chain with (gamma-Glu)2-CO-(CH2)16-CO2H; SITE 20:
# B7: Example 919 (peptide)
# chain: B1 chain with G40E, S41E
# modifications: non-natural residues; lipidated Lys; D-Glu; synthetic construct; SITE 2: note = 2-Aminoisobutyric Acid; SITE 10: note = 3-(4-Pyridyl)-L-alanine; SITE 13: note = alpha-methyl-leucine; SITE 17: note = Lysine is chemically modified through conjugation of the epsilon-amino group of the Lysine side chain with (2-[2-(2-Amino-ethoxy)-ethoxy]-acetyl)
# B8: Example 921 (peptide)
# chain: B1 chain
# modifications: Aib, 4Pal, αMeL, Me4Pal; acylated Lys; C-terminal amide; synthetic construct; SITE 2: note = 2-Aminoisobutyric Acid; SITE 10: note = 3-(4-Pyridyl)-L-alanine; SITE 13: note = alpha-methyl-leucine; SITE 17: note = Lysine is chemically modified through conjugation of the epsilon-amino group of the Lysine side chain with (D-Glutamic acid)2-(gamma-Glu)-CO-(CH2)
# B9: Example 949 (peptide)
# chain: B1 chain with Q12X, Y25X, X29G
# modifications: Aib, 4Pal, Orn, Me4Pal; acylated lysine; amide; synthetic construct; SITE 2: note = 2-Aminoisobutyric Acid; SITE 10: note = 3-(4-Pyridyl)-L-alanine; SITE 12: note = L-ornithine; SITE 13: note = alpha-methyl-leucine; SITE 17: note = Lysine is chemically modified through conjugation of the epsilon-amino group of the Lysine side chain with (2-[2-(2-
# B10: Example 952 (peptide)
# chain: B1 chain with Q12X, Y25X, X29G
# modifications: acylated Lys, C-terminal amide, non-natural residues; synthetic construct; SITE 2: note = 2-Aminoisobutyric Acid; SITE 10: note = 3-(4-Pyridyl)-L-alanine; SITE 12: note = L-ornithine; SITE 13: note = alpha-methyl-leucine; SITE 17: note = Lysine is chemically modified through conjugation of the epsilon-amino group of the Lysine side chain with (gamma-Gl)
# B11: Example 953 (peptide)
# chain: B1 chain with Q12R, Y25X, X29G
# modifications: Aib, 4Pal, αMeL, Me4Pal; lipidated Lys; C-terminal amide; synthetic construct; SITE 2: note = 2-Aminoisobutyric Acid; SITE 10: note = 3-(4-Pyridyl)-L-alanine; SITE 13: note = alpha-methyl-leucine; SITE 17: note = Lysine is chemically modified through conjugation of the epsilon-amino group of the Lysine side chain with (gamma-Glu)2-CO-(CH2)16-CO2H; SITE 20:
# B12: Example 91 (peptide)
# chain: YXQGTFTSDFSXXLDKKAQXAFIEYLLAGGPSSGAPPPSGEX
# modifications: synthetic construct; SITE 2: note = 2-Aminoisobutyric Acid; SITE 12: note = L-ornithine; SITE 13: note = alpha-methyl-leucine; SITE 17: note = Lysine is chemically modified through conjugation of the epsilon-amino group of the Lysine side chain with (2-[2-(2-Amino-ethoxy)-ethoxy]-acetyl)-(gamma-Glu)
# B13: Example 924 (peptide)
# chain: YXQGTFTSDXSQXLDKKAQXAFIEYLIEXGPSSGAPPPSGSE
# modifications: C-terminal amide; lysine acylated with γ-Glu-C18 diacid; synthetic construct; SITE 2: note = 2-Aminoisobutyric Acid; SITE 10: note = 3-(4-Pyridyl)-L-alanine; SITE 13: note = alpha-methyl-leucine; SITE 17: note = Lysine is chemically modified through conjugation of the epsilon-amino group of the Lysine side chain with D-Glutamic acid-(gamma-Glu)-CO-(CH2)16
# B14: Example 926 (peptide)
# chain: B13 chain
# modifications: γGlu-C18 diacid on Lys; non-natural residues; amide; synthetic construct; SITE 2: note = 2-Aminoisobutyric Acid; SITE 10: note = 3-(4-Pyridyl)-L-alanine; SITE 13: note = alpha-methyl-leucine; SITE 17: note = Lysine is chemically modified through conjugation of the epsilon-amino group of the Lysine side chain with (gamma-Glu)-(D-Glutamic acid)2-CO-(CH2)
# B15: Example 925 (peptide)
# chain: B13 chain
# modifications: acylated lysine γGlu-C18 diacid; non-natural residues; C-terminal amide; synthetic construct; SITE 2: note = 2-Aminoisobutyric Acid; SITE 10: note = 3-(4-Pyridyl)-L-alanine; SITE 13: note = alpha-methyl-leucine; SITE 17: note = Lysine is chemically modified through conjugation of the epsilon-amino group of the Lysine side chain with (D-Glutamic acid)2-(gamma-Glu)-CO-(CH2)
# B16: Example 927 (peptide)
# chain: B13 chain
# modifications: Aib, 4Pal, Me4Pal, alpha-methyl-Leu, lipidated Lys, amide; synthetic construct; SITE 2: note = 2-Aminoisobutyric Acid; SITE 10: note = 3-(4-Pyridyl)-L-alanine; SITE 13: note = alpha-methyl-leucine; SITE 17: note = Lysine is chemically modified through conjugation of the epsilon-amino group of the Lysine side chain with D-Glutamic acid-(gamma-Glu)-D-Glutamic
# B17: Example 932 (peptide)
# chain: B1 chain with K16X, Y25X, I27L, X29G
# modifications: non-natural residues; Lys acylated C18 diacid; C-terminal amide; synthetic construct; SITE 2: note = 2-Aminoisobutyric Acid; SITE 10: note = 3-(4-Pyridyl)-L-alanine; SITE 13: note = alpha-methyl-leucine; SITE 16: note = L-ornithine; SITE 17: note = Lysine is chemically modified through conjugation of the epsilon-amino group of the Lysine side chain with (2-[2-(2-
# B18: Example 933 (peptide)
# chain: B1 chain with Q12X, K16X, Y25X, I27L, X29G
# modifications: synthetic construct; SITE 2: note = 2-Aminoisobutyric Acid; SITE 10: note = 3-(4-Pyridyl)-L-alanine; SITE 12: note = L-ornithine; SITE 13: note = alpha-methyl-leucine; SITE 16: note = L-ornithine; SITE 17: note = Lysine is chemically modified through conjugation of the epsilon-amino group of the Lys
# Target: hGLP-1R (Homo sapiens, UniProt P43220)
# Sequence (P43220 24-463): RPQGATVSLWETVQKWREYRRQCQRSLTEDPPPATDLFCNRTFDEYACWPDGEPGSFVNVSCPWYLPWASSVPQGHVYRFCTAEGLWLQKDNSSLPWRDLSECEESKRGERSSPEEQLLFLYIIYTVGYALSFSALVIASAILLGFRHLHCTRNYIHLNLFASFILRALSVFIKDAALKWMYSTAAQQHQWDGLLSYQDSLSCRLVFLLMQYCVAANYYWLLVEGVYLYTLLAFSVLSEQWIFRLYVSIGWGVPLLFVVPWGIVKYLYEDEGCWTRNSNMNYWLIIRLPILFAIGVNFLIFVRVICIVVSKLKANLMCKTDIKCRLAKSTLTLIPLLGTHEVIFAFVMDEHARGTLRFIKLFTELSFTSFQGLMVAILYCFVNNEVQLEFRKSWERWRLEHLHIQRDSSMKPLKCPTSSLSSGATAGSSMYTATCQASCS
# Test: cell-based or functional assay
Binder,cAMP Rel EC50 (1% HSA) [nM],"cAMP Rel EC50, nM (1% HSA) [nM]",Relative cAMP EC50 [nM],"cAMP Rel EC50, nM (in the presence of 1% HSA) [nM]"
B1,357,,,
B2,870,,,
B3,322,,,
B4,,328,,
B5,,382,,
B6,175,,,
B7,454,,,
B8,261,,,
B9,,721,,
B10,,439,,
B11,,347,,
B12,,,3.39,356
B13,402,,,
B14,600,,,
B15,708,,,
B16,584,,,
B17,249,,,
B18,557,,2.32,

# Target: T1, human GIP receptor (human)
# Test: cell-based or functional assay
Binder,cAMP Rel EC50 (1% HSA) [nM],"cAMP Rel EC50, nM (1% HSA) [nM]",Relative cAMP EC50 [nM],"cAMP Rel EC50, nM (in the presence of 1% HSA) [nM]"
B1,6.39,,,
B2,18.5,,,
B3,9.05,,,
B4,,18.1,,
B5,,18.2,,
B6,28.1,,,
B7,25.8,,,
B8,12.4,,,
B9,,26,,
B10,,16.6,,
B11,,10.9,,
B12,,,0.243,23.9
B13,15.7,,,
B14,13.5,,,
B15,23,,,
B16,22.2,,,
B17,25,,,
B18,35.1,,0.259,

# Target: human glucagon receptor (human) (UniProt P47871)
# Sequence (P47871 26-477): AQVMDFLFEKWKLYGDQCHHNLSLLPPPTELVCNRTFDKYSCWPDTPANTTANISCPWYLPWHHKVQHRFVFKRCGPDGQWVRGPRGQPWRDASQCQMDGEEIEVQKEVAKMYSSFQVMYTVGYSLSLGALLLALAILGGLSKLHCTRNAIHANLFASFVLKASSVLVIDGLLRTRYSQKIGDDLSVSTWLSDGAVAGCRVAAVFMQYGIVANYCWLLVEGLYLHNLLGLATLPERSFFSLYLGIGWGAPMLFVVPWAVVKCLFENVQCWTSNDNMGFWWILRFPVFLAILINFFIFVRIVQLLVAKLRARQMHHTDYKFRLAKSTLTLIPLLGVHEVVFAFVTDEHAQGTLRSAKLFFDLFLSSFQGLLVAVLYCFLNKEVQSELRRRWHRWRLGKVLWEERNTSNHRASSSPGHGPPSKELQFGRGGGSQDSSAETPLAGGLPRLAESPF
# Test: cell-based or functional assay
Binder,cAMP Rel EC50 (1% HSA) [nM],"cAMP Rel EC50, nM (1% HSA) [nM]",Relative cAMP EC50 [nM],"cAMP Rel EC50, nM (in the presence of 1% HSA) [nM]"
B1,1170,,,
B2,1840,,,
B3,1090,,,
B4,,327,,
B5,,657,,
B6,1380,,,
B7,467,,,
B8,2130,,,
B9,,317,,
B10,,266,,
B11,,275,,
B12,,,9.13,1200
B13,910,,,
B14,1380,,,
B15,2500,,,
B16,1210,,,
B17,513,,,
B18,1530,,5.51,
